Data: patent publication US7288256B1, “T cell epitopes of the major allergens from dermatophagoides (house dust mite)” (Merck Patent GmbH, priority 1991, dated 2007)
Residues, ends and D or L forms follow the SMILES beside them.

Tests used:
[1] = pH-solubility profile of candidate peptides (HPLC of filtrate); assay type: physicochemical
Procedure: Stock solution A: 0.66 g […] of monobasic sodium phosphate monohydrate U.S.P. and 50 mg EDTA disodium dihydrate, U.S.P. were dissolved in 100 mL of WFI. The solution was filtered through a 0.2 micron filter
Stock solution B: 0.71 g […] of dibasic sodium phosphate U.S.P. were disolved in 100 ml WFI. The solution was filtered through a 0.2 micron filter.
Dispersions A and B were sonicated for 2 minutes for good homogeneity. A small volume was pipetted from each dispersion into a labeled eppendoff vial according to the following volume ratio:
The resultant solutions/suspensions were stored in the dark at about 22° C.±2 for 24 hours without agitation. The solutions were filtered and filtrates were analyzed for pH and peptide concentration.

[2] = pH-stability profile of candidate peptides (percent degradant peak area by HPLC); details: for stability (in words): single peptide, aqueous buffer, pH 6 to pH 8, development of DPII-22.14
Procedure: The concentration of filtered peptide solutions was determined by HPLC analysis. In this experiment, the solubility of peptide at each pH is defined as the amount of peptide remaining in solution after filtration through a membrane filter having a 0.2 micrometer pore size. The extent of degradation of peptides was estimated by calculating the percent of total degradant peak area over the total peak area.

human IgE = assay: Direct binding ELISA of IgE to mite allergen proteins and peptides (Examples XIII, XV)
Procedure: Corning assay plates (#25882-96) were coated with 5 μg/ml of each coating antigen listed in FIGS. 19, 20 and 21 at […] and incubated overnight at 4° C. The coating antigens were removed and the wells are blocked with 0.5% gelatin in PBS, 300 μl/well for 2 hours at room temperature. […] Louis, Mo.) and 100 μl/well a\was added and incubated overnight at 4° C. (plasma dilutions were tested in duplicate). The second antibody (biotinylated goat anti-Human IgE, 1:1000, Kirkegaard & Perry Laboratories Inc, Gaithersburg, Md.), was added at 100 μl/well for one hour at room temperature. This solution was removed and streptavidin-HRPO, 1:10000, (Southern Biotechnology Associates, Inc., Birmingham, Ala.) was then added at 100 μl/well for one hour at room temperature (all wells are washed three times with PBS-Tween between each incubation step). TMB Membrane Peroxidase Substrate system (Kirkegaard & Perry Laboratories) was freshly miced, and added at […]. The color was allowed to develop for 2-5 minutes. The reaction was stopped by the addition of […] of 1M phosphoric acid. Plates were read on a Microplate IL310 Autoreader (Biotech Instruments, Winooski, Vt.) with a 450 nm filter. The absorbance levels of duplicate wells were averaged. The order of coating antigens listed vertically in these figure legends corresponds in […] from left to right to the coating antigens listed for each histogram.

[3] = tested on: PBMC from mite-allergic patient; assay: Primary PBMC proliferation (3H-thymidine) to Der p I/Der p II proteins and peptides, Example IV; assay type: cell-based, human; details: for CPM ± S.D.: 7 days culture; for S.I.: CPM with antigen / CPM medium only
Procedure: Peripheral blood mononuclear cells (PBMC) were purified by Ficoll-Hypaque centrifugation of a peripheral blood specimen from mite-allergic patient and were assayed for proliferation in response to various antigens, i.e., affinity-purified Der p I, affinity purified […], various Der p I and Der p II peptides. For assay, 5×10^4 PBMC were cultured in triplicate microwells for 7 days at 37° C. in the presence of various concentrations of antigen in 200 μl RPMI-1640 containing 5% human AB serum. Each well then received 1 μCi tritiated thymidine for 16 hours. The counts incorporated were collected onto glass fiber filters and processed for liquid scintillation counting. […] The CPM+/− standard deviation are shown. The stimulation index of each response (S.I.) is the ratio of the ^3H-thymidine CPM incorporated by the cells in response to antigen divided by the ^3H-thymidine CPM incorporated by cells in medium only. […] Thus, these peptides contain Der p I or Der p II T cell epitopes recognized by T cells from this particular allergic patient.

[4] = pooled human plasma from 20 mite skin test positive patients, coating antigen 5 μg/ml, FIGS. 19-21
[5] = plasma from 19 mite-allergic patients and a pool of 18 additional patients, Example XV

CC[C@H](C)[C@H](NC(=O)[C@H](CO)NC(=O)[C@H](C)NC(=O)[C@H](CCCCN)NC(=O)[C@@H](NC(=O)[C@H](CCC(=O)O)NC(=O)[C@@H](NC(=O)[C@H](CCCCN)NC(=O)[C@H](C)NC(=O)[C@@H](NC(=O)[C@H](CCCCN)NC(=O)[C@@H](NC(=O)[C@H](CC(N)=O)NC(=O)[C@H](CCC(N)=O)NC(=O)[C@H](CC(N)=O)NC(=O)[C@H](C)NC(=O)[C@H](CCC(=O)O)NC(=O)[C@H](Cc1ccccc1)NC(=O)[C@@H](NC(=O)[C@H](C)NC(=O)[C@H](CCC(=O)O)NC(=O)[C@H](CC(C)C)NC(=O)[C@@H](N)CCC(N)=O)C(C)C)[C@@H](C)O)[C@@H](C)O)[C@@H](C)CC)[C@@H](C)CC)C(=O)N[C@@H](CC(=O)O)C(=O)NCC(=O)N[C@@H](CC(C)C)C(=O)N[C@@H](CCC(=O)O)C(=O)N[C@H](C(=O)O)C(C)C [DP II-22] (H-QLEAVFEANQNTKTAKIEIKASIDGLEV-OH; N-terminus and C-terminus assumed)
solubility (in words, against the superior solubility standard of 3 mg/ml) ([1]; development of DPII-22.14 from DpII-22): did not meet the “superior solubility” requirement of 3 mg/ml
stability (in words) [2]: stable
stability (in words) ([2]; listed as QLEAVFEANQNTKTAKIEIKASIDGLEV): nor did it meet the stability requirement

CC(C)C[C@H](NC(=O)[C@H](CCC(=O)O)NC(=O)[C@H](CCCCN)NC(=O)[C@@H](N)CC(=O)O)C(=O)N[C@@H](CCC(=O)O)C(=O)N[C@@H](C)C(=O)N[C@H](C(=O)N[C@@H](Cc1ccccc1)C(=O)N[C@@H](CCC(=O)O)C(=O)N[C@@H](C)C(=O)N[C@@H](CC(N)=O)C(=O)N[C@@H](CCC(N)=O)C(=O)N[C@@H](CC(N)=O)C(=O)N[C@H](C(=O)N[C@@H](CCCCN)C(=O)N[C@H](C(=O)N[C@@H](C)C(=O)N[C@@H](CCCCN)C(=O)N[C@@H](C)C(=O)N[C@@H](CCC(=O)O)C(=O)O)[C@@H](C)O)[C@@H](C)O)C(C)C [DP II-22.14] (H-DKELEAVFEANQNTKTAKAE-OH; N-terminus and C-terminus assumed)
solubility thermodynamic at 24 h ([1]; at a pH in the pH range of pH 6 to pH 8, 50 mM sodium phosphate, about 22° C., 24 hours): > 3000 µg/mL
solution stability in equal concentration combination ([2]; 3, 2 and 1 mg/ml per peptide, 24 hours at about 5° C. and about 22° C., common window within pH 6 to pH 8): acceptable solution stability

B1: rDer p II: recombinant Der p II expressed in E. coli as His6 fusion (protein)
chain: MGHHHHHHEFDQVDVKDCANHEIKKVLVPGCHGSEPCIIHRGKPFQLEAVFEANQNTKTAKIEIKASIDGLEVDVPGIDPNACHYMKCPLVKGQQYDIKYTWNVPKIAPKSENVVVTVKVMGDDGVLACAIATHAKIRD
IgE binding in direct ELISA (human IgE; [4]): good binding

B2: biochemically purified Der f II: Group II protein allergen of Dermatophagoides farinae, immunoaffinity purified native form (protein)
chain: DQVDVKDCANNEIKKVMVDGCHGSDPCIIHRGKPFTLEALFDANQNTKTAKTEIKASLDGLEIDVPGIDTNACHFMKCPLVKGQQYDAKYTWNVPKIAPKSENVVVTVKLVGDNGVLACAIATHAKIRD
IgE binding in direct ELISA (human IgE; [4]): binding

B3: Der p I: Group I protein allergen of Dermatophagoides pteronyssinus, immunoaffinity purified native form (protein)
chain: TNACSINGNAPAEIDLRQMRTVTPIRMQGGCGSCWAFSGVAATESAYLAHRNQSLDLAEQELVDCASQHGCHGDTIPRGIEYIQHNGVVQESYYRYVAREQSCRRPNAQRFGISNYCQIYPPNANKIREALAQTHSAIAVIIGIKDLDAFRHYDGRTIIQRDNGYQPNYHAVNIVGYSNAQGVDYWIVRNSWDTNWGDNGYGYFAANIDLMMIEEYPYVVIL
CPM ± S.D. ([3]; antigen 10 μg/ml): 920 ± 15 CPM
S.I. ([3]; antigen 10 μg/ml): 0.9
CPM ± S.D. ([3]; antigen 30 μg/ml): 2122 ± 93 CPM
S.I. ([3]; antigen 30 μg/ml): 2.0
CPM ± S.D. ([3]; antigen 100 μg/ml): 1492 ± 13 CPM
S.I. ([3]; antigen 100 μg/ml): 1.4
IgE binding in direct ELISA (human IgE; [5]): All samples did contain IgE

B4: biochemically purified Der f I: Group I protein allergen of Dermatophagoides farinae, immunoaffinity purified native form (protein)
chain: TSACRINSVNVPSELDLRSLRTVTPIRMQGGCGSCWAFSGVAATESAYLAYRNTSLDLSEQELVDCASQHGCHGDTIPRGIEYIQQNGVVEERSYPYVAREQRCRRPNSQHYGISNYCQIYPPDVKQIREALTQTHTAIAVIIGIKDLRAFQHYDGRTIIQHDNGYQPNYHAVNIVGYGSTQGDDYWIVRNSWDTTWGDSGYGYFQAGNNLMMIEQYPYVVIM
IgE binding in direct ELISA (human IgE; [4]): binding

B5: Der p II: Group II protein allergen of Dermatophagoides pteronyssinus, immunoaffinity purified native form (protein)
chain: DQVDVKDCANHEIKKVLVPGCHGSEPCIIHRGKPFQLEAVFEANQNTKTAKIEIKASIDGLEVDVPGIDPNACHYMKCPLVKGQQYDIKYTWNVPKIAPKSENVVVTVKVMGDDGVLACAIATHAKIRD
CPM ± S.D. ([3]; antigen 10 μg/ml): 1113 ± 35 CPM
S.I. ([3]; antigen 10 μg/ml): 1.0
CPM ± S.D. ([3]; antigen 30 μg/ml): 2104 ± 43 CPM
S.I. ([3]; antigen 30 μg/ml): 2.0
CPM ± S.D. ([3]; antigen 100 μg/ml): 1057 ± 27 CPM
S.I. ([3]; antigen 100 μg/ml): 1.0
IgE binding in direct ELISA (human IgE; [5]): All samples did contain IgE
IgE binding in direct ELISA (human IgE; [4]): good binding

B6: recombinant Der f II: recombinant Der f II expressed in E. coli as His6 fusion (protein)
chain: MGHHHHHHEFDQVDVKDCANNEIKKVMVDGCHGSDPCIIHRGKPFTLEALFDANQNTKTAKTEIKASLDGLEIDVPGIDTNACHFMKCPLVKGQQYDAKYTWNVPKIAPKSENVVVTVKLVGDNGVLACAIATHAKIRD
IgE binding in direct ELISA (human IgE; [4]): binding

B7: recombinant Der f I: recombinant Der f I expressed in E. coli as His6 fusion (protein)
chain: MGHHHHHHEFTSACRINSVNVPSELDLRSLRTVTPIRMQGGCGSCWAFSGVAATESAYLAYRNTSLDLSEQELVDCASQHGCHGDTIPRGIEYIQQNGVVEERSYPYVAREQRCRRPNSQHYGISNYCQIYPPDVKQIREALTQTHTAIAVIIGIKDLRAFQHYDGRTIIQHDNGYQPNYHAVNIVGYGSTQGDDYWIVRNSWDTTWGDSGYGYFQAGNNLMMIEQYPYVVIM
IgE binding in direct ELISA (human IgE; [4]): no detectable binding
